Data from patent US20240376170A1 (BRIGHT PEAK THERAPEUTICS, published 2024).
Bridges are numbered along the chain shown (N, C = ends). Primed or numbered codes have the meaning given here. Side-chain parts run from the residue outwards. [ ]: non-standard residue; d: D form. 8x polyethylene glycol‑amino = O-(8x polyethylene glycol-amino)-tyrosine, SITE 45; 9x polyethylene glycol‑azido = O-(9x polyethylene glycol-azido)-tyrosine, SITE 42; Ygp(8) = Tyr, amino-capped PEG8 (O-(8x polyethylene glycol-amino)-tyrosine); Yn3(8) = Tyr, azide-capped PEG9 (O-(9x polyethylene glycol-azido)-tyrosine); Ygp = O-(8x polyethylene glycol-amino)-tyrosine (Tyr, amino-capped PEG8); Yn3 = O-(9x polyethylene glycol-azido)-tyrosine (Tyr, azide-capped PEG9); Ygp″ = O-(8x polyethylene glycol-amino)-tyrosine; Yn3″ = O-(9x polyethylene glycol-azido)-tyrosine; PEG9′ = 9x polyethylene glycol; hSer = N[C@@H](CCO)C(=O)O; Nle = CCCC[C@H](N)C(=O)O

T1: IL-2Rβγ on HEK-Blue IL-2Rβγ reporter cells (InvivoGen) (UniProt P14784 27-551; P31785 23-369, limits assumed)
T1 sequence (looked up) 1: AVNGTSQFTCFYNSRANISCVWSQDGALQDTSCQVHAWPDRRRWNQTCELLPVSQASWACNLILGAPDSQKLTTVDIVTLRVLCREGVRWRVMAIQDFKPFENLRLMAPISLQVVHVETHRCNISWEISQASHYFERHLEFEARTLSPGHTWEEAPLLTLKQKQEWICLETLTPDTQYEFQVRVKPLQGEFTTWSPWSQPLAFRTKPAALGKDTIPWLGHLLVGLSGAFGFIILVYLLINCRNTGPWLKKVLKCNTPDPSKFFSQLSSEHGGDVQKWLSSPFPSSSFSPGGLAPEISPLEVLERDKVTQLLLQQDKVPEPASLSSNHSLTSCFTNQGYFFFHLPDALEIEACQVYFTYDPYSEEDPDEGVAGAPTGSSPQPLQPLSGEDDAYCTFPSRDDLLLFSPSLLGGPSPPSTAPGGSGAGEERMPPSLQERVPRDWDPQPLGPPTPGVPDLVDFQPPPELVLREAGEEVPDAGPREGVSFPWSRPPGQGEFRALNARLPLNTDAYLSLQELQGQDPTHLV
T1 sequence (looked up) 2: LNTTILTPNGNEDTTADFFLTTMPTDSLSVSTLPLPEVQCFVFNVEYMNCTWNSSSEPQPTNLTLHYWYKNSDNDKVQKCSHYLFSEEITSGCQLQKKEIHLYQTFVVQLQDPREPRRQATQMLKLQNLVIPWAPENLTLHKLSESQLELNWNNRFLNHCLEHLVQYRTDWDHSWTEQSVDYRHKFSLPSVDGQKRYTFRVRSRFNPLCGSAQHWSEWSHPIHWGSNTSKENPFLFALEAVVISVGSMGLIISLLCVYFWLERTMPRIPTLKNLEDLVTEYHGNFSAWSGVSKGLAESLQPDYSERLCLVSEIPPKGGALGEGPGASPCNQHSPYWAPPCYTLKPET

T2: IL-2 receptor βγ complex (human, UniProt P14784 27-551; P31785 23-369)
T2 sequence (looked up) 1: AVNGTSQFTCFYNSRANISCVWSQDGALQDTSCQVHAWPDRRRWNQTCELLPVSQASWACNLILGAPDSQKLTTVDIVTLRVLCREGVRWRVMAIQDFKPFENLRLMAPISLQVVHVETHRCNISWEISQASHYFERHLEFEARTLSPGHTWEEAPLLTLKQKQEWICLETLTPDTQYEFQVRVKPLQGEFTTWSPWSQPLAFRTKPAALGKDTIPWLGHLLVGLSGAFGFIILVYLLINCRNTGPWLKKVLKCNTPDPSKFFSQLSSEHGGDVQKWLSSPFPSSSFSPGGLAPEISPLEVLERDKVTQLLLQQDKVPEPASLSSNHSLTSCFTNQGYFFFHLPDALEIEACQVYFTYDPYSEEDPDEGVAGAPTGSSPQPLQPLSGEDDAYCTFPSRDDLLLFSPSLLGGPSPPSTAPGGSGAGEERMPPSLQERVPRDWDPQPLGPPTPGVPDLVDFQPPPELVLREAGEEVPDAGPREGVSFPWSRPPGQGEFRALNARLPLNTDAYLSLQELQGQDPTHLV
T2 sequence (looked up) 2: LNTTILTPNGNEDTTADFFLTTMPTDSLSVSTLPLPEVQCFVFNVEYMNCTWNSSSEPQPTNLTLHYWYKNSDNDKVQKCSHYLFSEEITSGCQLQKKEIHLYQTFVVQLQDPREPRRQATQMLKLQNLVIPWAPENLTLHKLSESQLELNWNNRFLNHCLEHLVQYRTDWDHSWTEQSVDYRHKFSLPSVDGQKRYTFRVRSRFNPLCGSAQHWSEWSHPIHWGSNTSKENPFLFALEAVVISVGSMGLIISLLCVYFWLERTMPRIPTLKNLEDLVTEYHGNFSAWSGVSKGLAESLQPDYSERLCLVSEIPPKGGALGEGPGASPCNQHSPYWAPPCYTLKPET


Tests used:
[1] = target: T1, IL-2Rβγ on HEK-Blue IL-2Rβγ reporter …; assay: cell-based or functional assay
[2] = target: T2, IL-2 receptor βγ complex; assay: cell-based or functional assay

Row | Binder | Average EC50, pSTAT5 Assay in NK cells [2] | other results
1 | CMP-302 (ligand, lactam N-30; ends not checked) GPLGLAGAPTSSSTKKTQLQLEHLLLDLQEILNGINNYKNPKLTR[Nle]L[hSer][Yn3″]KF[Ygp″][Nle]PKKATELKHLQCLEEELKPLEEVL[hSer]LAQSKNFHLRPRDLISNINVIVLELKGSETTF[hSer]CEYADETATIVEFLNRWITFSQSIISTLT |  | Average EC50, HEK-Blue IL-2R (CD122+, CD132+) Reporter Assay, intact molecule [1]: 0.436 nM
2 | CMP-317, MMP2 cleaved molecule (ligand, also: A1 attached to another sequence via 4x polyethylene glycol, E23 side chain attached to another sequence, m119 after MMP2 cleavage, product not given here as a sequence) APTSSSTKKTQLQLEHLLLDLQEILNGINNYKNPKLTR[Nle]L[hSer]Y(9x polyethylene glycol‑azido)KFY(8x polyethylene glycol‑amino)[Nle]PKKATELKHLQCLEEELKPLEEVL[hSer]LAQSKNFHLRPRDLISNINVIVLELKGSETTF[hSer]CEYADETATIVEFLNRWITFSQSIISTLT | 12.2 nM | 
3 | CMP-319 (ligand, lactam N-33; ends not checked) RGRRVANLVGAPTSSSTKKTQLQLEHLLLDLQEILNGINNYKNPKLTR[Nle]L[hSer][Yn3]KF[Ygp][Nle]PKKATELKHLQCLEEELKPLEEVL[hSer]LAQSKNFHLRPRDLISNINVIVLELKGSETTF[hSer]CEYADETATIVEFLNRWITFSQSIISTLT | 7.72 nM | 
4 | CMP-303 (ligand, bridge N-29; not fully specified (N-terminus, bridges); ends not checked) PLGLAGAPTSSSTKKTQLQLEHLLLDLQEILNGINNYKNPKLTR[Nle]L[hSer][Yn3″]KF[Ygp″][Nle]PKKATELKHLQCLEEELKPLEEVL[hSer]LAQSKNFHLRPRDLISNINVIVLELKGSETTF[hSer]CEYADETATIVEFLNRWITFSQSIISTLT |  | Average EC50, HEK-Blue IL-2R (CD122+, CD132+) Reporter Assay, intact molecule [1]: 0.521 nM
5 | CMP-302, MMP2 cleaved (ligand, ends and bridges not checked; also: MMP2 cleaved, ring opened, cut site and remnants not given here) GPLGLAGAPTSSSTKKTQLQLEHLLLDLQEILNGINNYKNPKLTR[Nle]L[hSer][Yn3″]KF[Ygp″][Nle]PKKATELKHLQCLEEELKPLEEVL[hSer]LAQSKNFHLRPRDLISNINVIVLELKGSETTF[hSer]CEYADETATIVEFLNRWITFSQSIISTLT |  | Average EC50, HEK-Blue IL-2R (CD122+, CD132+) Reporter Assay, MMP2 cleaved molecule [1]: 0.00646 nM
6 | CMP-301 (ligand, lactam N-31; ends not checked) GPLGLAG[PEG9′]APTSSSTKKTQLQLEHLLLDLQEILNGINNYKNPKLTR[Nle]L[hSer][Yn3″]KF[Ygp″][Nle]PKKATELKHLQCLEEELKPLEEVL[hSer]LAQSKNFHLRPRDLISNINVIVLELKGSETTF[hSer]CEYADETATIVEFLNRWITFSQSIISTLT |  | Average EC50, HEK-Blue IL-2R (CD122+, CD132+) Reporter Assay, intact molecule [1]: 0.591 nM
7 | CMP-320 (ligand, lactam N-34) SGRVAPQPLVDAPTSSSTKKTQLQLEHLLLDLQEILNGINNYKNPKLTR[Nle]L[hSer][Yn3(8)]KF[Ygp(8)][Nle]PKKATELKHLQCLEEELKPLEEVL[hSer]LAQSKNFHLRPRDLISNINVIVLELKGSETTF[hSer]CEYADETATIVEFLNRWITFSQSIISTLT | 13.2 nM | 
8 | CMP-318 (ligand, lactam N-32; ends not checked) SGRVANLVGAPTSSSTKKTQLQLEHLLLDLQEILNGINNYKNPKLTR[Nle]L[hSer][Yn3]KF[Ygp][Nle]PKKATELKHLQCLEEELKPLEEVL[hSer]LAQSKNFHLRPRDLISNINVIVLELKGSETTF[hSer]CEYADETATIVEFLNRWITFSQSIISTLT | 37.4 nM | 
9 | CMP-301, MMP2 cleaved (ligand, ends and bridges not checked; also: MMP2 cleaved, ring opened, cut site and remnants not given here) APTSSSTKKTQLQLEHLLLDLQEILNGINNYKNPKLTR[Nle]L[hSer][Yn3″]KF[Ygp″][Nle]PKKATELKHLQCLEEELKPLEEVL[hSer]LAQSKNFHLRPRDLISNINVIVLELKGSETTF[hSer]CEYADETATIVEFLNRWITFSQSIISTLT |  | Average EC50, HEK-Blue IL-2R (CD122+, CD132+) Reporter Assay, MMP2 cleaved molecule [1]: 0.00726 nM

Now from value to binder, other results behind:

Row | Average EC50, pSTAT5 Assay in NK cells [2] | Binder | other results
10 | 0.18 nM | CMP-325 (ligand, not fully specified; ends and bridges not checked) RVANLVGAPTSSSTKKTQLQLEHLLLDLQE([Arg-Gly-Arg])ILNGINNYKNPKLTR[Nle]L[hSer][Yn3″]KF[Ygp″][Nle]PKKATELKHLQCLEEELKPLEEVL[hSer]LAQSKNFHLRPRDLISNINVIVLELKGSETTF[hSer]CEYADETATIVEFLNRWITFSQSIISTLT | 
11 | 0.13 nM | CMP-323 (ligand, not fully specified; ends and bridges not checked) LVGAPTSSSTKKTQLQLEHLLLDLQE([Arg-Gly-Arg])ILNGINNYKNPKLTR[Nle]L[hSer][Yn3″]KF[Ygp″][Nle]PKKATELKHLQCLEEELKPLEEVL[hSer]LAQSKNFHLRPRDLISNINVIVLELKGSETTF[hSer]CEYADETATIVEFLNRWITFSQSIISTLT | 
12 | 55.1 nM | CMP-321 (ligand, lactam N-32) SGRVQPLVDAPTSSSTKKTQLQLEHLLLDLQEILNGINNYKNPKLTR[Nle]L[hSer][Yn3(8)]KF[Ygp(8)][Nle]PKKATELKHLQCLEEELKPLEEVL[hSer]LAQSKNFHLRPRDLISNINVIVLELKGSETTF[hSer]CEYADETATIVEFLNRWITFSQSIISTLT | 
13 | 2.94 nM | CMP-321, MMP2 cleaved molecule (ligand, lactam N-32; also: MMP2 cleaved, cleavage site and product not given here) SGRVQPLVDAPTSSSTKKTQLQLEHLLLDLQEILNGINNYKNPKLTR[Nle]L[hSer][Yn3(8)]KF[Ygp(8)][Nle]PKKATELKHLQCLEEELKPLEEVL[hSer]LAQSKNFHLRPRDLISNINVIVLELKGSETTF[hSer]CEYADETATIVEFLNRWITFSQSIISTLT | 
14 | 0.38 nM | CMP-324 (ligand, not fully specified (residue 26); ends and bridges not checked; also: Glu26 side chain attached to another sequence (short peptide)) LVGAPTSSSTKKTQLQLEHLLLDLQEILNGINNYKNPKLTR[Nle]L[hSer][Yn3″]KF[Ygp″][Nle]PKKATELKHLQCLEEELKPLEEVL[hSer]LAQSKNFHLRPRDLISNINVIVLELKGSETTF[hSer]CEYADETATIVEFLNRWITFSQSIISTLT | 
